# Measured values reported in PMC9555238, “Interaction of BES1 and LBD37 transcription factors modulates brassinosteroid-regulated root forging response under low nitrogen in arabidopsis”.
# T1: LBD37 (Arabidopsis thaliana, UniProt Q9FN11 1-250)
# T1 sequence: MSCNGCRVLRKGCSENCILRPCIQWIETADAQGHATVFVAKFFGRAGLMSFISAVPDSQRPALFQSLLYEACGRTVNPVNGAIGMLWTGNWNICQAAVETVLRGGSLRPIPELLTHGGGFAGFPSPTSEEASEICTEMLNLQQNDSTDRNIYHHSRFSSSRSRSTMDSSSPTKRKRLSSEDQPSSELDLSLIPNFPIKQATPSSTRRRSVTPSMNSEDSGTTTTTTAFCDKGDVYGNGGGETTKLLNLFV
# Biological target: T1, LBD37
# Test: EMSA; 5 mM HEPES-KOH pH 8.0, 50 mM KCl, 1 mM DTT, 10% glycerol, 20 uL, on ice 60 min; 5% native PAGE in TBE
# Settings: protein: recombinant; tags: MBP (N-terminal, pMAL-c2X); (LightShift chemiluminescent kit)
binder,measurement,value
"NRT2.1 promoter probe, mutated LOB motif (dsDNA) DNA 1: AGACTAGGAAGATGCTTGAAAAGAAAATGGATTCCTCGAAA DNA 2: TTTCGAGGAATCCATTTTCTTTTCAAGCATCTTCCTAGTCT",binding result,no binding
